Reference: publication PMC9813255 (2023)

B1: PQBP5-Δ1 (protein)
chain: TYQLSLKFERCLDSEVVTFEILSDDYSKIVFLHNDRYIEFHSQSGFYYKTRIPKFGRDFSYHYPSCDLYFVGASSEVYRLNLEQGRYLNPLQTDAAENNVCDINSVHGLFATGTIEGRVECWDPRTRNRVGLLDCALNSVTADSEINSLPTISALKFNGALTMAVGTTTGQVLLYDLRSDKPLLVKDHQYGLPIKSVHFQDSLDLILSADSRIVKMWNKNSGKIFTSLEPEHDLNDVCLYPNSGMLLTANETPKMGIYYIPVLGPAPRWCSFLDNLTEELEENPESTVYDDYKFVTKKDLENLGLTHLIGSPFLRAYMHGFFMDIRLYHKVKLMVNPFAYEEYRKDKIRQKIEETRAQRVQLKKLPKVNKELALKLIEEEEEKQKSTWKKKVKSLPNILTDDRFKVMFENPDFQVDEESEEFRLLNPLVSKISEKRKKKLRLLEQQELREKEEEEEPEGKPSDAESSESSDDEKAWVEEVRKQRRLLQQEEKVKRQERLKEDQQTVLKPQFYEIKAGEEFRSFKDSATKQKLMNKTLEDRLKIEAKNGTLSVSDTTVGSKQLTFTLKRSEQQKKQQEAEKLHRQERKRLRRSAGHLKSRHKRGRSFH
modifications: Delta number assigned from the order of the constructs in the methods; initiator Met from the primer and tag omitted.
B2: PQBP5-Δ1 (protein)
chain: B1 chain
modifications: Delta number assigned from the order of the constructs in the methods; initiator Met from the primer and tag omitted. Exon 1 with the polyQ tract (18-38, 21Q) repeated to 110Q, as in the assayed protein name. The plasmid is called 103Q, so the repeat count is ambiguous. GST omitted.
B3: PQBP5-Δ5 (protein)
chain: MQVSSLNEVKIYSLSCGKSLPEWLSDRKKRALQKKDVDVRRRIELIQDFEMPTVCTTIKVSKDGQYILATGTYKPRVRCYDTYQLSLKFERCLDSEVVTFEILSDDYSKIVFLHNDRYIEFHSQSGFYYKTRIPKFGRDFSYHYPSCDLYFVGASSEVYRLNLEQGRYLNPLQTDAAENNVCDINSVHGLFATGTIEGRVECWDPRTRNRVGLLDCALNSVTADSEINSLPTISALKFNGALTMAVGTTTGQVLLYDLRSDKPLLVKDHQYGLPIKSVHFQDSLDLILSADSRIVKMWNKNSGKIFTSLEPEHDLNDVCLYPNSGMLLTANETPKMGIYYIPVLGPAPRWCSFLDNLTEELEENPESTVYDDYKFVTKKDLENLGLTHLIGSPFLRAYMHGFFMDIRLYHKVKLMVNPFAYEEYRKDKIRQKIEETRAQRVQLKKLPKVNKELALKLIEEEEEKQKSTWKKKVKSLPNILT
modifications: Delta number assigned from the order of the constructs in the methods (fifth: 1-481, lacking NUC153); tag omitted. Exon 1 with the polyQ tract (18-38, 21Q) repeated to 110Q, as in the assayed protein name. The plasmid is called 103Q, so the repeat count is ambiguous. GST omitted.
B4: full-length human PQBP5 (His-tag fusion protein) (natural protein)
chain: MQVSSLNEVKIYSLSCGKSLPEWLSDRKKRALQKKDVDVRRRIELIQDFEMPTVCTTIKVSKDGQYILATGTYKPRVRCYDTYQLSLKFERCLDSEVVTFEILSDDYSKIVFLHNDRYIEFHSQSGFYYKTRIPKFGRDFSYHYPSCDLYFVGASSEVYRLNLEQGRYLNPLQTDAAENNVCDINSVHGLFATGTIEGRVECWDPRTRNRVGLLDCALNSVTADSEINSLPTISALKFNGALTMAVGTTTGQVLLYDLRSDKPLLVKDHQYGLPIKSVHFQDSLDLILSADSRIVKMWNKNSGKIFTSLEPEHDLNDVCLYPNSGMLLTANETPKMGIYYIPVLGPAPRWCSFLDNLTEELEENPESTVYDDYKFVTKKDLENLGLTHLIGSPFLRAYMHGFFMDIRLYHKVKLMVNPFAYEEYRKDKIRQKIEETRAQRVQLKKLPKVNKELALKLIEEEEEKQKSTWKKKVKSLPNILTDDRFKVMFENPDFQVDEESEEFRLLNPLVSKISEKRKKKLRLLEQQELREKEEEEEPEGKPSDAESSESSDDEKAWVEEVRKQRRLLQQEEKVKRQERLKEDQQTVLKPQFYEIKAGEEFRSFKDSATKQKLMNKTLEDRLKIEAKNGTLSVSDTTVGSKQLTFTLKRSEQQKKQQEAEKLHRQERKRLRRSAGHLKSRHKRGRSFH
B5: full-length human PQBP5 (His-tag fusion protein) (natural protein)
chain: B4 chain
modifications: Exon 1 with the polyQ tract (18-38, 21Q) repeated to 110Q, as in the assayed protein name. The plasmid is called 103Q, so the repeat count is ambiguous. GST omitted.

Assays:
GST-Atxn1-86Q = molecular target: T1, GST-Atxn1-86Q (UniProt P54253 1-815); experiment: SPR
T1 chain: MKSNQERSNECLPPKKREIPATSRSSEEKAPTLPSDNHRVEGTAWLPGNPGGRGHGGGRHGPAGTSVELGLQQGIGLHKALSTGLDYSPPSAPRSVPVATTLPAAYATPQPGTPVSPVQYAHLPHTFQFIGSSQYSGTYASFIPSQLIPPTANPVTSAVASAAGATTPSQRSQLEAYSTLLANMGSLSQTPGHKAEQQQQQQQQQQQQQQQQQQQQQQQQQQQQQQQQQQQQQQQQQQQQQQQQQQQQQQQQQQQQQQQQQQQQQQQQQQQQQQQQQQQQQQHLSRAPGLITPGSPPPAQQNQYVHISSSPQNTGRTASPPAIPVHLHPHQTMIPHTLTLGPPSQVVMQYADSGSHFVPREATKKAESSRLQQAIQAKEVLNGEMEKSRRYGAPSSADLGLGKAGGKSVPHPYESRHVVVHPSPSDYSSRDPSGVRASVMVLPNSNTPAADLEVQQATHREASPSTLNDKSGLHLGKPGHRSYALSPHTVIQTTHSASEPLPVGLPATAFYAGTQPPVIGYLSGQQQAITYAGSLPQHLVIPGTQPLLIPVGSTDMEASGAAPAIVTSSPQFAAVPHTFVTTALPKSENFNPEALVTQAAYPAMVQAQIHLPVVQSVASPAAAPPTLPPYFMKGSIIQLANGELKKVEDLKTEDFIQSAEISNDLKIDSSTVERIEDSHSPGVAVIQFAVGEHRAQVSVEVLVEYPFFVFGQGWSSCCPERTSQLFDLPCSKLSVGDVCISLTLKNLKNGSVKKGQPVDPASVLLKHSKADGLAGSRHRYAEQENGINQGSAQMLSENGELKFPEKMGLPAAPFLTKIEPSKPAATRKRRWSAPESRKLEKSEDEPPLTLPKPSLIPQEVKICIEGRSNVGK

GST-Atxn1-33Q = molecular target: T2, GST-Atxn1-33Q (UniProt P54253 1-815); experiment: SPR
T2 chain: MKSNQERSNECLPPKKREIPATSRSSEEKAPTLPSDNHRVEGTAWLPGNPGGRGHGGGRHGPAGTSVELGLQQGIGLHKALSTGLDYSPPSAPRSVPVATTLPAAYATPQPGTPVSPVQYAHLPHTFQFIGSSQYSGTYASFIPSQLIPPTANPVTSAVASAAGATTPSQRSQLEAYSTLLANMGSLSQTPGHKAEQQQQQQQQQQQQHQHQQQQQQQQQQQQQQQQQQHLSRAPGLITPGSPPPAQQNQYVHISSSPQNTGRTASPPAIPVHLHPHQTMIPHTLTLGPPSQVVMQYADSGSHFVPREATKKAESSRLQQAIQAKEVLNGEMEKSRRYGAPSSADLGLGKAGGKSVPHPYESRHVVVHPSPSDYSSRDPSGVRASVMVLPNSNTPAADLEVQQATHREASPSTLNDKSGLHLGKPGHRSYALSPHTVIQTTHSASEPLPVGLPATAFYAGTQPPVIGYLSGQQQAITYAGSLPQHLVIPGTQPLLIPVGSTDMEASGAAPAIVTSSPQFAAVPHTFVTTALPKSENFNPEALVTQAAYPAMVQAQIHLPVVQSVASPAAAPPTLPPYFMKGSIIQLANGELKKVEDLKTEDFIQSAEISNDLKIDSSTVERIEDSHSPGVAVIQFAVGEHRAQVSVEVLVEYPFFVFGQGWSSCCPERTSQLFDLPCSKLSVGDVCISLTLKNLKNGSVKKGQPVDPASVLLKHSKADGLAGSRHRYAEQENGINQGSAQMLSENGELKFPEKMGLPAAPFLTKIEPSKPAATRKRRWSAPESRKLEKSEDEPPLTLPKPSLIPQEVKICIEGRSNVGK

GST-Htt-110Q = molecular target: T3, GST-Htt-110Q; experiment: SPR
T3 chain: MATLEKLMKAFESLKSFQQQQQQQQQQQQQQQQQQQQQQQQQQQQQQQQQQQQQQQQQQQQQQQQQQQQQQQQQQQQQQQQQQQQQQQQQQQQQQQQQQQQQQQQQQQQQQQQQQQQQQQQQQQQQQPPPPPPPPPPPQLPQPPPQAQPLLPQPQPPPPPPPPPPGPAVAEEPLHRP

[1] = molecular target: T4, human fibrillarin (His-tag fusion protein) (human, UniProt P22087 1-321); experiment: SPR; PQBP5 analyte, fibrillarin immobilized
T4 chain: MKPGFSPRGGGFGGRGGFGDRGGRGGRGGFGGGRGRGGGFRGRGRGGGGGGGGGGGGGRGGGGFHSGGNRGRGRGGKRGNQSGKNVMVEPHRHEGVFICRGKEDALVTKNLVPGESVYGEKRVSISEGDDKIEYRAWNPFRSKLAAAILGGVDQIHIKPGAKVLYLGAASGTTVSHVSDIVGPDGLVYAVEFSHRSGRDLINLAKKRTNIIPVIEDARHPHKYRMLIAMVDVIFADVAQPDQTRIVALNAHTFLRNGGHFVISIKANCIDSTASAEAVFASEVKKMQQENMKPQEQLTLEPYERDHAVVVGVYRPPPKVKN

[2] = molecular target: human nucleolin (His-tag fusion protein) (human, UniProt P19338 1-710); experiment: SPR; PQBP5 analyte, nucleolin immobilized
Chain of human nucleolin (His-tag fusion protein) (P19338 whole entry, the tested form may be a part): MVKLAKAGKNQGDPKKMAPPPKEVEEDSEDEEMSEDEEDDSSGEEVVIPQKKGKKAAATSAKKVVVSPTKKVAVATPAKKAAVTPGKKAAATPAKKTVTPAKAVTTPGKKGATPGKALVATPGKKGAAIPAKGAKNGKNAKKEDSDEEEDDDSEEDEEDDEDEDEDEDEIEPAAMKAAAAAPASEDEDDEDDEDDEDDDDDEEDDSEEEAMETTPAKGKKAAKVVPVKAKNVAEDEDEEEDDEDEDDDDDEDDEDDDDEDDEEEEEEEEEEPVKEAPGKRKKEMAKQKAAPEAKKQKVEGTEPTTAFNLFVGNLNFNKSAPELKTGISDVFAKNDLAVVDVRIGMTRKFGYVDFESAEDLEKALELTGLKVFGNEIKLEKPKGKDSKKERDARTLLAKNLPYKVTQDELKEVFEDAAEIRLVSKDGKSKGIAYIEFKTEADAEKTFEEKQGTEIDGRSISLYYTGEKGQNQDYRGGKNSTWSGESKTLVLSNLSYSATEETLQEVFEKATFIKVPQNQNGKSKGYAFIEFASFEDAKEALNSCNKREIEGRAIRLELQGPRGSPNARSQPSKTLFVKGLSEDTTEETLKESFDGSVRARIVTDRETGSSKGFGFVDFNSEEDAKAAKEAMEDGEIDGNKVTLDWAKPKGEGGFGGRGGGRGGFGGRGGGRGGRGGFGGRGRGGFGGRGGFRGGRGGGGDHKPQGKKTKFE

| Binder | Kd (GST-Atxn1-86Q) [nM] | Kd (GST-Atxn1-33Q) [nM] | Kd (GST-Htt-110Q) [nM] | Kd [1] [nM] | Kd [2] [nM] |
| --- | --- | --- | --- | --- | --- |
| B1 | 0.294 | 0.355 | – | – | – |
| B2 | – | – | 2.11 | – | – |
| B3 | – | – | 0.424 | – | – |
| B4 | 0.179 | 0.342 | – | 745 | 0.447 |
| B5 | – | – | 0.00362 | – | – |
